Test results as given in publication PMC7319273 (Science (New York, N.y.), 2020).

B1: 1M-1D2 (human monoclonal antibody) (antibody, V domains shown)
VH: QVQLVESGGGLVQPGGSLRLSCAASGFTFSSYAMHWVRQAPGKGLEYVSAISGNGGSTYYAKSVKGRFTISRDNSKNTLYLQMGSLRAEDMAVYYCARGAEYYDFWSGYYSAYFDYWGQGTLVTVSS
VL: QAVVTQPPSASGTPGQRVTISCSGSSSNIGSNYVYWYQQLPGTAPKLLIYNNNQRPSGVPDRFSGSKSGTSASLAISGLRSEDEADYYCAAWDDSLIYVLFGGGTKLTVL
B2: 0304-3H3 (human monoclonal antibody) (antibody, V domains shown)
VH: EVQLVESGPGLVKPSETLSLTCTASGGSISTYYWSWIRQPPGKGLEWIGYIYYSGSTNYNPSLKSRVTISVDTSKNQFSLKLSSVTAADTAVYYCARDRIAPVGKFFGWYFDLWGRGTLVTVSS
VL: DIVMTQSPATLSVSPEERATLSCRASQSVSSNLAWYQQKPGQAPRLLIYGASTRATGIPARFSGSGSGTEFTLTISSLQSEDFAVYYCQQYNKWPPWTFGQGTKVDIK
notes: also called mAb 0304-3H3
B3: 9A1 (human monoclonal antibody) (antibody, V domains shown)
VH: EVQLLESGGGVVQPGRSLRLSCVVSGFTFNNYGMHWVRQAPGKGLEWVAVISYEGSVKYYGDHVDGRFTISRDPFKNTLYLHMNNLRPDDTAVYYCAKVSAIFWLGQGLSPIDVWGQGTTVTVSS
VL: DIVMTQSPATLSASPGERVTLSCRASQNIRNNLAWYQQKPGQAPRLLIHGASTRAAGAPARFSGSGSDTQFTLTVSSLQSEDFAVYYCHQYSKWPVTFGGGTKVDIK
notes: also called mAb 9A1
B4: 2M-10B11 (human monoclonal antibody) (antibody, V domains shown)
VH: EVQLVESGGGLVQPGGSLRLSCAASGFTVSSNYMSWVRQAPGKGLEWVSVIYSGGSTYYADSVKGRFTISRDNSKNTLYLQMNSLRAEDTAVYYCARATWLRGVMDVWGQGTTVTVSS
VL: QSALTQPHSVSESPGKTVTISCTGSSGSIASNYVQWYQQRPGSAPTTVIYEDNQRPSGVPDRFSGSIDSSSNSASLTISGLKTEDEADYYCQSYDSSNHWVFGGGTKLTVL
notes: ELISA group 2B; also called mAb 2M-10B11

Target: T1, SARS-CoV-2 Spike protein extracellular domain (S-ECD), as used in ELISA and BLI (SARS-CoV-2, Wuhan-Hu-1 (P0DTC2))
Experiment: BLI
Details: both partners purified

| Binder | Kd [nM] |
| --- | --- |
| B1 | < 2.14 |
| B2 | < 2.14 |
| B3 | < 2.14 |
| B4 | < 2.14 |

Target: T1, SARS-CoV-2 Spike protein extracellular …
Experiment: cell-based or functional assay
Details: not given

| Binder | neutralization of authentic SARS-CoV-2 in Vero-E6 cells, EC50 [µg/mL] |
| --- | --- |
| B1 | 28 |
| B2 | 0.04 |
